The values that follow come from patent publication US20080081903A1, “METHOD FOR SCREENING TRANSCRIPTIONAL COREGULATORY PROTEINS OF TRANSCRIPTION FACTORS, AND ANDROGEN RECEPTOR TRANSCRIPTIONAL COREGULATORY PROTEINS AS TARGETS FOR ANDROGEN RECEPTOR-DEPENDENT DISEASES” (NEW YORK UNIVERSITY, priority 2001, published 2008).

In experiment [1] the target is T1, androgen receptor ligand-binding domain (579-901) (Rattus norvegicus, UniProt P15207).
T1 construct: expressed in transfected cells; host or cells: yeast (modified two-hybrid assay)
T1 sequence (P15207 579-901): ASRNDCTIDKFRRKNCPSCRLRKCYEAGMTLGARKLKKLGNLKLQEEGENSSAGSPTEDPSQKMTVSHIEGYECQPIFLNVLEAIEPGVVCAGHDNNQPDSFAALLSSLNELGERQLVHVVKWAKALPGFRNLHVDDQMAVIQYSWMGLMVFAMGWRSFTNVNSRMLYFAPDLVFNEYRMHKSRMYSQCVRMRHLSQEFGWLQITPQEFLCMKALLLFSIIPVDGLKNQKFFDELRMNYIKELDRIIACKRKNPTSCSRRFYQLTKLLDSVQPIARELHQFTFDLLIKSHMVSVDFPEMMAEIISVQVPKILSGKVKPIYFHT
The experiment is described as follows: Modified yeast two-hybrid specificity panel. As to conditions: absence or presence of hormone.

In experiment [2] the target is T2, androgen receptor N-terminus (AR18-500) (Rattus norvegicus, UniProt P15207).
T2 construct: receptor residues 18 through 500 (using the rat androgen receptor number scheme); expressed in transfected cells; host or cells: Saccharomyces cerevisiae EGY188
T2 sequence (P15207 18-500): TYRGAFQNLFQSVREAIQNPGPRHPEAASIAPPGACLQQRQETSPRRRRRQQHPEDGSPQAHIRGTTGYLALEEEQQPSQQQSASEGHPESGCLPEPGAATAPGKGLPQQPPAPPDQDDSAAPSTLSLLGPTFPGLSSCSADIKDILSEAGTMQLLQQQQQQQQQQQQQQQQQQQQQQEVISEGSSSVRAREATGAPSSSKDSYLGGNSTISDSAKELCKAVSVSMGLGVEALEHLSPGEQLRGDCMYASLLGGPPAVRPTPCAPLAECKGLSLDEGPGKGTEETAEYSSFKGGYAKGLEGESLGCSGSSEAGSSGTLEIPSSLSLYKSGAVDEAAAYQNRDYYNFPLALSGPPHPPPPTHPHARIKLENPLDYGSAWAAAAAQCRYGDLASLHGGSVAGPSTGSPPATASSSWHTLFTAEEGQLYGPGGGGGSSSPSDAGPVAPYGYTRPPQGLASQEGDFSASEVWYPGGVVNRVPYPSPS
The experiment is described as follows: Modified yeast two-hybrid, quantitative liquid beta-galactosidase assay. It is filed as binding. As to conditions: LexA-ART fusions vs AR18-500; twelve hour incubation in galactose-containing media. As for the experimental part:
(§1) The modified yeast two hybrid assay is described in Hittelman et al., 1999. EGY188 was transformed by the lithium acetate method with (i) pJG4-5:AR18-500, (ii) pEG202:LNCaP cell cDNA library and (iii) pJK103, a β-galactosidase reporter gene with a single LexA operator. Potential interacting proteins were selected by plating the cDNA library expressing transformants onto galactose plates lacking leucine and containing X-gal.
Yeast were grown in selective liquid media containing 2% glucose for approximately 12 hours, pelleted, washed once with sterile H2O, normalized according to cell number and resuspended to an optical density (OD600) of 0.15 in 2% galactose/1% raffinose. β-galactosidase assays were performed 12 hours later as described previously (Garabedian et al., 1992).
Out of approximately one million library transformants, eight clones were isolated that interact with the androgen receptor N-terminus. There protein factors were termed ARTs, for Androgen Receptor Trapped, by the present inventors. The eight ART clones were sequenced and were subjected to a database search using the BLAST program. A quantitative liquid beta-galactosidase assay was used to measure the relative strength of interaction between the androgen receptor N-terminus and the ARTs using the yeast two-hybrid system. The levels of expression of the ARTs in yeast were similar, as determined by immunoblotting using an antibody to the LexA DNA-binding domain that is common to all of the ARTs.
ARTs expressed as fusion proteins with the LexA DNA binding domain were analyzed for their ability to interact with AR18-500. The relative strength of interaction was determined by a quantitative liquid beta-galactosidase assay after a twelve hour incubation in galactose-containing media at 30EC. The LexA vector alone gives 1 unit of activity.

In experiment [3] the target is T3, androgen receptor (AR) N-terminus (18-500) (Rattus norvegicus, UniProt P15207).
T3 construct: receptor residues 18 through 500 (using the rat androgen receptor number scheme); expressed in transfected cells; host or cells: Saccharomyces cerevisiae EGY188
T3 sequence (P15207 18-500): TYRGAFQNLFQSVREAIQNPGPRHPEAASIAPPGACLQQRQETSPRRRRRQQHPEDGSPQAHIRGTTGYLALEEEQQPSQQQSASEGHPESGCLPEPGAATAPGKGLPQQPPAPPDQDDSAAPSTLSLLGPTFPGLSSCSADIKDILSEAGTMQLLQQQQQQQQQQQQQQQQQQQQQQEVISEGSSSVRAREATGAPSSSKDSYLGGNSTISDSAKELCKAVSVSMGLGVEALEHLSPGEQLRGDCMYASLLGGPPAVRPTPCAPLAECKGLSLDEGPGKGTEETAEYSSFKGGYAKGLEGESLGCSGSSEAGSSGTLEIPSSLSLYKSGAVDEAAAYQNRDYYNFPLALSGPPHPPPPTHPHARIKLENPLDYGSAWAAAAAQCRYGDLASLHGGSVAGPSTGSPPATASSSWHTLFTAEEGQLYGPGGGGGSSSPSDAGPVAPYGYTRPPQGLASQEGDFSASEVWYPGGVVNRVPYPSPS
The experiment is described as follows: Modified yeast two-hybrid, qualitative plate beta-galactosidase assay. Type of experiment: binding.
Source text: as §1
To analyze the specificity of ART interaction, the capacity of the strongest androgen receptor N-terminus-interacting factors to associate with a panel of transcriptional regulatory proteins in the modified yeast two-hybrid assay was examined. ART-5, ART-27, and ART-37 were tested for interaction with Sp1A (Sp183-262), Sp1B (Sp1263-524) the cyclic AMP response element binding protein (CREB3-296), TBP-associated factor 130 (TAFII130270-700), the glucocorticoid receptor AF1 (GR107-237), and the steroid receptor coactivator-1 (SRC-1374-800).
The strength of interaction was determined by a qualitative plate beta-galactosidase assay after a 24 hour incubation on galactose X-gal plates at 301 C.
ART-27 derivatives containing amino acids 1-45, 1-67, 1-127, 46-157, 68-157, 127-157, 1-157, and 1-45/127-157 were expressed as fusion proteins with LexA. These derivatives were tested for their ability to interact with the androgen receptor N-terminus (AR18-500). The strength of interaction was determined by a qualitative plate beta-galactosidase assay after a 24 hour incubation on galactose X-gal plates at 301 C.

B1: ART-5: Androgen Receptor Trapped protein, SEQ ID NO:4, unknown function, represented in EST database (protein)
chain: MHNPDGSASPTADPGSELQTLGQAARRPPPPRAGHDAPRRTRPSARKPLSCFSRRPMPTREPPKTRGSRGHLHTHPPGPGPPLQGLAPRGLKTSAPRPPCQPQPGPHKAKTKKIVFEDELLSQALLGAKKPIGAIPKGHKPRPHPVPDYELKYPPVSSERERSRYVAVFQDQYGEFLELQHEVGCAQAKLRQLEALLSSLPPPQSQKEAQVAARVWREFEMKRMDPGFLDKQARCHYLKGKLRHLKTQIQKFDDQGDSEGSVYF
modifications: Human
On to B1, for which the “interaction with androgen receptor ligand binding domain” value in experiment [1] is “No interaction”. Further, the “relative strength of interaction with androgen receptor N-terminus” value in experiment [2] is on record as “strongest”. Moreover, the “interaction with androgen receptor N-terminus” value in experiment [3] (24 hour incubation on galactose X-gal plates) is on record as “interacts exclusively”. Besides, in experiment [3] (AR N-terminus, AR LBD, Sp1A, Sp1B, CREB, TAFII130, GR AF1, SRC-1), the “specificity of interaction among panel of transcriptional regulatory factors” value is “interacts rather specifically”.
